These results are taken from the Immune Epitope Database (IEDB).

For experiment [1], the target named is HLA-A*30:01. Description: IEDB peptide-MHC binding, purified MHC/competitive/radioactivity; filed as Kd, often an IC50 or EC50 that approximates it; ≥ and ≤ were set here for values at or beyond the usual limits of such assays.
The target in experiment [2] is HLA-B*07:02. Described as above.
For experiment [3], the target named is HLA-B*35:01. The experiment is described as above.
The target in experiment [4] is HLA-B*51:01. The experiment is described as above.
For experiment [5], the target named is HLA-B*53:01. Described as above.
Experiment [6] addresses HLA-B*54:01. The experiment is described as above.
Experiment [7] has as its target HLA-A*26:01. The description is as above.
The target in experiment [8] is HLA-A*24:02. Description: IEDB peptide-MHC binding, purified MHC/competitive/fluorescence; ≥ and ≤ were set here for values at or beyond the usual limits of such assays.
The target in experiment [9] is HLA-A*01:01. The experiment in a line: IEDB peptide-MHC binding, purified MHC/competitive/radioactivity; filed as Kd, often an IC50 or EC50 that approximates it; ≥ and ≤ were set here for values at or beyond the usual limits of such assays. To be noted: source organism: Dengue virus 2 Jamaica/1409/1983.
Experiment [10] concerns the target HLA-A*02:01. The experiment in a line: IEDB peptide-MHC binding, purified MHC/competitive/fluorescence; filed as Kd, often an IC50 or EC50 that approximates it; ≥ and ≤ were set here for values at or beyond the usual limits of such assays.
Experiment [11] concerns the target HLA-A*02:02. The experiment in a line: IEDB peptide-MHC binding, purified MHC/competitive/radioactivity; filed as Kd, often an IC50 or EC50 that approximates it; ≥ and ≤ were set here for values at or beyond the usual limits of such assays. The conditions noted are these: source organism: Vaccinia virus WR.
In experiment [12] the target is HLA-A*02:03. The description is as above. The conditions noted are these: source organism: Vaccinia virus WR.
Experiment [13] deals with HLA-A*02:06. The description is as above. To be noted: source organism: Vaccinia virus WR.
For experiment [14], the target named is HLA-A*02:01. Description: IEDB peptide-MHC binding, purified MHC/competitive/fluorescence; ≥ and ≤ were set here for values at or beyond the usual limits of such assays.
[15] abbreviates: source organism: Vaccinia virus WR.
Where [16] appears, read: source organism: Dengue virus 2 Jamaica/1409/1983.
Where [17] appears, read: source organism: Mammarenavirus lassaense.
Where [18] appears, read: source organism: Dengue virus 3 Martinique/1243/1999.
Where [19] appears, read: source organism: Dengue virus 1 Brazil/97-11/1997.
Where [20] appears, read: source organism: Zaire ebolavirus.
[21] abbreviates: source organism: Dengue virus 4 Philippines/H241/1956.
The mark [22] stands for this setting: source organism: Human alphaherpesvirus 2.
Setting [23] is: source organism: Vaccinia virus.
[24] abbreviates: source organism: Sudan ebolavirus.
Where [25] appears, read: source organism: SARS coronavirus Tor2.
The mark [26] stands for this setting: source organism: Mammarenavirus brazilense.

A word on the Kd: it is the concentration at which binding is half-saturated. In the case of AAMYQYIFL, the Kd in experiment [1] (setting [15]) is 7.53 nM.
Consider AVSRGSAKLR, for which, in experiment [1] (setting [16]), the dissociation constant Kd worked out at 1210 nM.
As for CPKIFNNNY, the Kd in experiment [2] (setting [15]) was at least 72900 nM; in [3] (setting [15]) it was 160 nM; in experiment [4] (setting [15]), at least 77500 nM; in experiment [5] (setting [15]) it was 331 nM; in [6] (setting [15]), 13000 nM.
On to CPNCYDSVM, for which the Kd was found to be 205 nM in experiment [2] (setting [17]); 7.87 nM in [3] (setting [17]); 5710 nM in [4] (setting [17]); 79.5 nM in experiment [5] (setting [17]); 4500 nM in experiment [6] (setting [17]).
In the case of CTKHSKDFA, the Kd in [1] (setting [15]) worked out at 231 nM.
For DARIYSDPLA, in experiment [1] (setting [16]), the Kd is 744 nM.
For DPEYFDNERI, the Kd in experiment [2] (setting [15]) was at least 69600 nM; in experiment [3] (setting [15]), at least 34800 nM; in experiment [4] (setting [15]), 3860 nM; in experiment [5] (setting [15]) it was 1740 nM; in experiment [6] (setting [15]), 2260 nM.
As for DTVTYKCPL, the Kd in experiment [7] (source organism: Dengue virus 4 Dominica/814669/1981) turned out to be 1260 nM.
As to EFLDYMPSM, in experiment [7] (setting [18]), the dissociation constant (Kd) worked out at 16200 nM.
On to ESALNDTWKI, for which the Kd in experiment [7] (source organism: Dengue virus 2 Peru/IQT2913/1996) is at least 69700 nM.
As to ETLGEKWKRQ, the Kd in [7] (setting [19]) is 12300 nM.
The IC50 is the concentration at which inhibition is half-maximal. A lower IC50 goes with higher potency. Turning to EWAFWETKK, in experiment [8] (setting [20]), the IC50 came to 5980 nM.
Consider EYVDYMPVM, for which the Kd in experiment [7] (setting [21]) is at least 21300 nM.
For the sequence FTTNIWLKL, in experiment [9], the dissociation constant (Kd) turned out to be 1330 nM.
Take GPHETITAL: the Kd in experiment [2] (setting [22]) is 1.4 nM; in [3] (setting [22]) it was 797 nM; in experiment [4] (setting [22]), at least 77500 nM; in experiment [5] (setting [22]) it was 3350 nM; in experiment [6] (setting [22]) it was 4850 nM.
In [10] (source organism: Escherichia coli 536), GQLASMVKL returned a Kd of 78.2 nM.
As for HIKTIAVSV, the Kd is 3080 nM in experiment [11], 9.6 nM in experiment [12], 1550 nM in [13] and 66.8 nM in experiment [1] (setting [15]).
Consider HPFIYVIRHV, for which the Kd was found to be 11700 nM in [2] (setting [15]); 7040 nM in experiment [3] (setting [15]); 1020 nM in experiment [4] (setting [15]); 2010 nM in experiment [5] (setting [15]); 2.71 nM in experiment [6] (setting [15]).
Take HTIENSTAN: in experiment [7] (setting [18]), the dissociation constant Kd is 6990 nM.
ICQLIIQAF showed an IC50 in experiment [8] (setting [20]) of 446 nM.
As for IFGNLSPET, the IC50 in experiment [14] (setting [23]) was determined as 47300 nM; in experiment [8] (setting [23]), 14000 nM.
Take ITFLRVLSIP: the dissociation constant (Kd) in experiment [1] (setting [21]) turned out to be 828 nM.
Regarding ITTAVKTVL, the IC50 in experiment [14] (setting [24]) was 55300 nM; in [8] (setting [24]), 37400 nM.
In the case of ITVIDLDPIP, in experiment [1] (setting [16]), the dissociation constant Kd amounted to 295 nM.
Turning to KGRRQYFYG, the Kd in [1] (setting [15]) was 2.85 nM.
On to KKKTWLVHK, for which the Kd in [1] (setting [21]) worked out at 470 nM.
In experiment [8] (source organism: Vaccinia virus Copenhagen), KLIIDREVV registered an IC50 of at least 137000 nM. Also, in experiment [10] (setting [15]), the Kd stood at 1790 nM.
Consider KMRRERAAY, for which the Kd in [1] (setting [15]) was found to be 3.04 nM.
For KRTLTPQPME, the Kd in experiment [1] (setting [18]) turned out to be 15100 nM.
Regarding KSRRLNLFS, the equilibrium dissociation constant (Kd) in experiment [1] (setting [15]) is 3.28 nM.
Same read-out and setting: for KTSFHIIFL the value was 25 nM.
As to LGADLDAVI, the half-inhibitory concentration (IC50) in experiment [14] (setting [15]) amounted to 20500 nM; in experiment [8] (setting [15]), 7660 nM.
For LPFYSNVTGF, the Kd in experiment [2] (setting [25]) was 563 nM; in experiment [3] (setting [25]) it was 11.5 nM; in experiment [4] (setting [25]) it was 861 nM; in experiment [5] (setting [25]), 79.8 nM; in experiment [6] (setting [25]), 132 nM.
Take LPSLEYGANY: the equilibrium dissociation constant (Kd) in experiment [2] (setting [15]) is at least 45100 nM; in experiment [3] (setting [15]) it was 15.1 nM; in experiment [4] (setting [15]), at least 69600 nM; in experiment [5] (setting [15]) it was 13.3 nM; in experiment [6] (setting [15]) it was 960 nM.
With LPTSIVVPI, the Kd in [2] (setting [26]) worked out at 124 nM; in [3] (setting [26]), 6.09 nM; in [4] (setting [26]), 75.8 nM; in [5] (setting [26]), 7.51 nM; in experiment [6] (setting [26]), 17.7 nM.
In the case of LSRNKKPRI, in experiment [1] (setting [19]), the equilibrium dissociation constant (Kd) came to 7690 nM.
In turn, LVSIPRTNIV came in with a Kd in experiment [10] (source organism: Variola virus) of 279 nM.
